In US10981967B2, “Long-acting conjugate of triple glucagon/GLP-1/GIP receptor agonist” (HANMI PHARM. CO., LTD., priority 2015, dated 2021):
Positions of bridges follow the written chain, without caps; N, C: chain ends. Non-standard residues stand in square brackets, D forms with d. No end group written: not given here. Aib = CC(C)(N)C(=O)O

How the values were obtained:
Format in all cases: cell-based
human GLP-1 receptor = target: T1, human GLP-1 receptor (Homo sapiens, UniProt P43220); assay: In vitro cAMP activity (LANCE cAMP kit) in CHO cells expressing human GLP-1 receptor, relative to human GLP-1; settings: long-acting conjugates; relative potency from cAMP EC50 compared to human GLP-1, CHO cells
T1 construct: expressed in transfected cells; host or cells: Chinese hamster ovary (CHO)
Method: (§1) The activities of the triple agonists and long-acting conjugates thereof prepared in Examples 1 and 2 were measured by a method of measuring in vitro cellular activities using cell lines, where a GLP-1 receptor, a glucagon (GCG) receptor, and a GIP receptor are transformed, respectively.
(§2) Each of the cell lines above is one in which the genes for human GLP-1 receptor, human GCG receptor, and human GIP receptor were transformed in Chinese hamster ovary (CHO), respectively, and can be expressed therein, and is thus suitable for the measurement of the activities of GLP-1, GCG, and GIP. Accordingly, the activity for each part was measured using the respective transformed cell line.
(§3) For the measurement of the GLP-1 activities of the triple agonists and long-acting conjugates prepared in Examples 1 and 2, human GLP-1 was subjected to a 4-fold serial dilution from 50 nM to 0.000048 nM, and the triple agonists and long-acting conjugates thereof prepared in Examples 1 and 2 were subjected to a 4-fold serial dilution from 400 nM to 0.00038 nM. The culture solution was removed from the cultured CHO cells, in which the human GLP-1 receptor was expressed, and each of the serially-diluted materials was added to the CHO cells in an amount of 5 μL, respectively. Then, a buffer solution containing cAMP antibody was added thereto in an amount of 5 μL and cultured at room temperature for 15 minutes. Then, a detection mix containing a cell lysis buffer was added thereto in an amount of 10 μL for the lysis of the cells and reacted at room temperature for 90 minutes. The cell lysates, upon completion of the reaction, were applied to LANCE cAMP kit (PerkinElmer, USA) to calculate the EC50 value via accumulated cAMP, and the values were compared with each other.

human GCG receptor = target: T2, human GCG receptor (Homo sapiens, UniProt P47871); assay: In vitro cAMP activity (LANCE cAMP kit) in CHO cells expressing human GCG receptor, relative to human GCG; settings: long-acting conjugates, relative potency from cAMP EC50 compared to human GCG
T2 construct: expressed in transfected cells; host or cells: Chinese hamster ovary (CHO)
Method: as §1, §2
as §3, with “GCG” for “GLP-1”

human GIP receptor = target: T3, human GIP receptor (Homo sapiens, UniProt P48546); assay: In vitro cAMP activity (LANCE cAMP kit) in CHO cells expressing human GIP receptor, relative to human GIP; settings: long-acting conjugates, relative potency from cAMP EC50 compared to human GIP
T3 construct: expressed in transfected cells; host or cells: Chinese hamster ovary (CHO)
T3 sequence (P48546 22-466): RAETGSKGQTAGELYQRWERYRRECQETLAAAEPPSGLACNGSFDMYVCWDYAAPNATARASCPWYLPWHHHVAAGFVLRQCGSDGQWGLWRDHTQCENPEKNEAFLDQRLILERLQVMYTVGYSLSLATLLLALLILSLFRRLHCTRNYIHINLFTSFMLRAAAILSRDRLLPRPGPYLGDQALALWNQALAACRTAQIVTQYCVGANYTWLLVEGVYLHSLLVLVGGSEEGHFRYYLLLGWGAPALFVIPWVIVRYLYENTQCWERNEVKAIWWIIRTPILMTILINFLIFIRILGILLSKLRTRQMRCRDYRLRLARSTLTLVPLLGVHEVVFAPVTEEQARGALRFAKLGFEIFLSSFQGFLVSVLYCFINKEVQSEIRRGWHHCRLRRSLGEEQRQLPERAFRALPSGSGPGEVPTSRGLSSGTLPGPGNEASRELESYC
Method: as §1, §2
as §3, with “GIP” for “GLP-1”

T2 sequence (P47871 26-477): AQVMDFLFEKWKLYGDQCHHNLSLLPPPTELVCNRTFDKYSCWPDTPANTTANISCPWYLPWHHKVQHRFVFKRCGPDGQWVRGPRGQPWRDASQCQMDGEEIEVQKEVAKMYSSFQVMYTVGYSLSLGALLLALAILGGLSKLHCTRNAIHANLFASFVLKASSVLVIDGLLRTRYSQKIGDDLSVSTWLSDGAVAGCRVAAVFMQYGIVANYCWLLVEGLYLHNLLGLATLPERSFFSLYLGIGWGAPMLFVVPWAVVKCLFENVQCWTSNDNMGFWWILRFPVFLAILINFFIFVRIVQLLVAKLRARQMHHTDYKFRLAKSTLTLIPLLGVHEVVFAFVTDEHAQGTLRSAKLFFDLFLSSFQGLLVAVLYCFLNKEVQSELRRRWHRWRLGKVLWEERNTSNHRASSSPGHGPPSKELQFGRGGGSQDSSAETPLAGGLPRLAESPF
T1 sequence (P43220 24-463): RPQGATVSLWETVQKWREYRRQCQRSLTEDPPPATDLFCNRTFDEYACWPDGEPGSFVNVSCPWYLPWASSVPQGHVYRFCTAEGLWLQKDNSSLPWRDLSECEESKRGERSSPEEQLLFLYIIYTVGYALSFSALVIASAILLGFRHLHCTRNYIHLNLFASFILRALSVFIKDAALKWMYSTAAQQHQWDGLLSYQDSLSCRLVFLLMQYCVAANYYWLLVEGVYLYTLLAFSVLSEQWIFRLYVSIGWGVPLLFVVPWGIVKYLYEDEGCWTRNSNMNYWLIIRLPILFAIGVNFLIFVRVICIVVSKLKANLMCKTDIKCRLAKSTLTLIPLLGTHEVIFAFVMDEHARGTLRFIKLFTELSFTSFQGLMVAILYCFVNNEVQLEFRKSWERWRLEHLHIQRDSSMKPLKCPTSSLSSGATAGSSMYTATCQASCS

Row | Substance | In vitro activity compared to native peptide (%) vs. GLP-1 (human GLP-1 receptor) [%] | In vitro activity compared to native peptide (%) vs. Glucagon (human GCG receptor) [%] | In vitro activity compared to native peptide (%) vs. GIP (human GIP receptor) [%]
1 | 96 (Y[Aib]QGTFTSDYSKYLDEKRAKEFVQWLLDHCPSSGQPPPS; bridge 16-20) [compound 96] | 0.3 | 4.0 | 0.3
2 | 50 (H[Aib]QGTFTSDYSKYLDEKRAKEFVQWLLDHHPSSGQPPPSC; bridge 16-20) [compound 50] | 15.4 | 6.9 | 0.7
3 | 77 (Y[Aib]QGTFTSDYSKYLDEKAAKDFVQWLLDHHPSSGQPPPSC; bridge 16-20) [compound 77] | 6.7 | 1.7 | 6.6
4 | 22 (Y[Aib]QGTFTSDYSKCLDEKRAKEFVQWLLDHHPSSGQPPPS; bridge 16-20) [compound 22] | 0.1 | 0.9 | 0.5
5 | 42 (Y[Aib]QGTFTSDYSKYLDEKRAKEFVQWLLDHHPSSGQPPPSC; bridge 16-20) [compound 42] | 3.1 | 23.1 | 1.2
6 | 43 (Y[Aib]QGTFTSDYSKYLDEKRAKEFVQWLLDHHCSSGQPPPS; bridge 16-20) [compound 43] | 2.1 | 13.5 | 0.6
7 | 21 (Y[Aib]QGTFTSDYSKYLDECRAKEFVQWLLDHHPSSGQPPPS; bridge 16-20) [compound 21] | 0.1 | 1.6 | 0.2
